Variants at the floor of the assay were thinned out.
B1: TPR 5TU (parent)
chain: GGAUCUUCUCGAUCUAACAAAAAAGACAAAUCUGCCACAAAGCUUGAGAGCAUCUUCGGAUGCAGAGGCGGCAGCCUUCGGUGGCGCGAUAGCGCCAACGUUCUCAACUAUGACACGCAAAACGCGUGCUCCGUUGAAUGGAGUUUAUCAUG

Variants of: B1
Test: polymerase ribozyme fitness, log enrichment relative to wild type (log ratio); higher = more active; in vitro selection for triplet polymerase activity
In short: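 Each subunit of a heterodimeric triplet polymerase ribozyme was mutagenized into a library by PCR, transcribed, and subjected to one round of in vitro selection, run in triplicate. Libraries were annealed with a biotinylated primer, the partner subunit and triplets, incubated frozen at −7 °C, and extended constructs were gel-excised, captured on streptavidin beads and recovered by RT-PCR. Input and output libraries were sequenced on Illumina, keeping genotypes with ≥10 input reads and ≥1 read per output. Fitness is log base 2 of genotype enrichment divided by wild-type enrichment, from inverse-variance-weighted replicate averages.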

Variant	polymerase ribozyme fitness (log ratio)
GGAUCUUCUCGAUCUAACAAAAAAGACAAAUCUGCCACAAAGCUUGAGAGCAUCUUCGGAUGCAGAGGCGGCAGCGUUCGGUUGCGCGAAAGCGCCAACGUUCUCAACUAUGACACGCAAAACGCGUUCUCCGUGGAAUGGAGUUUAUCAUG [C76G G83U U90A G128U U135G]	≤ -4.2
GGAUCUUCUCGAUCUAACAAAAAAGACAAAUCUGCCACAAAGCUUGAGAGCAUCUUCGGAUGCAGAGGCGGCAGCCUUCGGUGGCGCGAUAGCGCCAACGUUCUCAGCUAUGACACUCAAAACGCGUGCUCCGUUGAAUGGAGUUUAUCAUG [A107G G117U]	-4.04
GGAUCUUCUCGAUCUAACAAAAAAGACAAAUCUGCCACUAAGCUUGAGAUCAUCUUCGGAUGCAGAGGCGGCAGCCUUCGGUGGCGCGAUAGCGCCAACGUUCUCAACUAUGACACGCAAAACGCGUGCUCCGUUGAAGGGAGUUUAUCAUG [A39U G50U U139G]	-2.97
GGAUCUUCUCGAUCUAACAAGAAAGACAAAUCUGCCACAAAGCUUGAGAGCAUCUUCGGAUGCAGAGGCGGCAGCCUUCGGUGGCGCGAUAGCGCCAACGUUCUCAACUAUGACACGCAAAACGCGUGCUCCGUUGAGUGGAGUUUAUCAUG [A21G A138G]	-3.38
GGAUCUUCUCGAUCUAACAAAAAAGACAAAUCUGCCACAAUGCUUGUGAGCAUCUUCGGAUGCAGAGGCGGCAGCCUUCGGUGGCGCGAUAGCGCCAAGGUUCUCAUCUAUGACACGCAAAACGCGUGCUCCGUUGAAUGGAGUUUAUCAUG [A41U A47U C99G A107U]	≤ -4.2
GGAUCUUCUCGAUCUAACACAAAAGACAAAUCUGCCAGAAAGCUUGAGAGCAUCUUCGGAUGCAGAGGCGGCAGCCUUCGGUGGCGCGAUAGCGCCAACGUUCUCAACUAUGACACGCAAAACGCGUGCUCCGUUGAAUGGAGUUUAUCAUG [A20C C38G]	-1.37
GGAUUUUCUCGAUCUAACAAAAAAGACUAAUCUGCCACAAAGCUUGAGAGGAUCUUCGGAUGCAGAGGCGGCAGGCUUCGGUGGCGCGAUAGCGUCAACGUUCUCAACUAUGACACGCAAAACGCGUGCUCCGUUGAAUGUAGUUUAUCAUG [C5U A28U C51G C75G C95U G141U]	-4.02
GGAUCUUCUCGAUCUAACAAAAAAGACAAAUCUGCCACAAAGCUUGAGAGCAUCUUCGGAUGCAGAGGCGGCAGCAUUCGGCGGCGCGACAGCCCCAACGUUCUCAACUAUGACAUGCAAAACGCGUGCUCCGUUGAAUGGAAUUUAUCAUG [C76A U82C U90C G94C C116U G143A]	≤ -4.2
GGAUCUUCUCGCUCUAACAAAAAAGACAAAUCUGCCACAAAGAUUGAGAGCAUCUUAGGAUGCAGAGGCGGCAGCCUUCGGUGACGCGAUAGCGCCAACGUUCUCAACUAUGACACGCAAAACGCGUGCUCCGUUGAAGGGAGUUUUUCAUG [A12C C43A C57A G84A U139G A147U]	≤ -4.2
GGAUCUUCUCGAUCUAACAAAAAAGACAAAUCUGCCACAAAGCUUGAGAGCAUCUUCGGAUGCAGAGGCGGCAGCAUUCGGUGGCGCGAUAUCGCCAACGUUCUCAACUAUGACACGCAAAACGCGUGCUCCGUUGAAUGGAGUUUAUCAUG [C76A G92U]	-2.07
GGAUCUUCUCGAUCUAACAAAAAAGACAAAUCUGCCACAAAGCUUGAAAGCACCUUCGGAUGCAGAGGCGGCAGCCUUCGGUGGCGCGAUACCGUCACCGUUCUCAACUAUGACACGCAAAACGCGUGCUCCGUUGAAUGGAGUUUAUCAUG [G48A U53C G92C C95U A98C]	-1.65
GGAUCUUCUCGAUCUAACAAAAAAGACAAAUCUGCCACAAAGCUUGAGAGCAUCGUCUGAUCCAGAGGCGGCAGCCUUCGGUGGUGCGAUAGCGCCAACGUUCUCAACUAUGACACGCAAAACGCGUGCUCCGUUGGAUGGAGUUUAUCAUG [U55G G58U G62C C85U A137G]	-3.31
GGAUCUUCUCGAUCUAACAAAAAAGACAAAUCUGCCACAAAGCUUGAGAGCAUCUUCGGAUGCAGAGGCGGCAGCCUUCGGUGACGCGAUAGCGCCAACGUUCUCAACUAUGACACGCAAAACGCGUGCUCCGUUGAAUGGUGUUUAUCAUG [G84A A142U]	-0.702
GGAUCUUCUCGAUCUAACAAAAAAGACAAAUCUGCCACAAAACUUGAGAGCAUCUUCGGAUGCAGUGGCGGCAGCCUUCGGUGGCGCGGUAGCGCCAACGUUCUCAACUAUGACACGCAAAACGCGUGCUCCGUUGAAUGGAGUAUAUCAUG [G42A A66U A89G U145A]	≤ -4.2
GGAUCUUCUCGAUCUAACAAAAAAGACAAAUCUGCCACAAAGCUUGAGAGCAUCUUCGGAUGCAGAGGCGGCAGCCUUCGGUGACGCGAUAGGGCCAACGUUCUCAACUAUGACACGCAAAACGCGUGCUCCGUUGAAUGGAGUUUAUCAUG [G84A C93G]	-3.77
GGAUCUUCUCGAUCUAACAAUAUAGACAAAUCUGCCACAAAGCUUGAGAGCAUCUUCGGAUGCAGAGGCGGCAGCCUUCGGUGGCGCGAUAGCGCCAACGUUCUCAACUAUGACACGCAAAACGCGUGCUCCGUUGAAUGGAGUUUAUCAUG [A21U A23U]	≤ -4.2
GGAUCUUCUCGAUCUAACAAAAAAGACAAAUCUGCCACAAAGCUUGAGAGCAACUUCGGAUGCAGAGGCGGCAGCAUUCGGUGGCGUGAUAGCGCCAACGUUCUCACCUAUGACACGCAAAACGCGUGCUCCGUUGAAUGGAGUUUAUCAUG [U53A C76A C87U A107C]	≤ -4.2
GGAUCUUCUCGAUCUAACAAUAAAGACAAAUCUGCCACAAAGCUUGAGAGCAUCUUCGGAUGCAGAGGCGGCAGCCUUCGGUGGCGCGAUAGCGCCAACGUUCUCAAUUAUGACACGCAAAACGCGUGCUCCGUUGAAUGGAGUUUAUCAUG [A21U C108U]	-3.78
GGAUCUUCUCGAUCUAAAAAAAAAGACAAAUCUGCCACAAAGCUUGAGAGCAUCUUCGGAUGCAGAGGCGGCAGCCUUCGGUAGCGCGAUAGCGCCAACGUUCUCACCUCUGACACGCAAAACGCGUGCUCCGUUGAAUGGAGUUUAUCAUG [C18A G83A A107C A110C]	≤ -4.2

Variant	polymerase ribozyme fitness (log ratio)
GGAUCUUCUCGAUCUAACAAAAAAGACAAAUCUGCCAUAAAGCCUGAGAGCAUUUUCGGAUGCAGAGGCGGCAGCCUUCGGUGGCGCGAUAGCACCAACGUUCUCAACUAUGACACGCAAAACGCGUGCUUCGUUGAAAGGAGCUUAUCAUG [C38U U44C C54U G94A C131U U139A U144C]	≤ -4.2
GGAUCUUCUCGAUCAAACAAAAAAGACAAAUCUGCCACAAAGCUUGAGAGCAUCUUCGGAUGCAGAGGCGGCAGCCUUCGGUGGCGCGAUAGCGCCAACGUUCUCAACUAUGACACGCAAAACGCGUGCUCCGUUGAAUGGCGUUUUUCAUG [U15A A142C A147U]	-1.65
GGAUCUUCUCGAUCUAACACAAAAGACAAAUCUGCUACAAAGCUUGAGAGCAUCUUCGGAUGCAGAGGCGGCAGCCUUCGGUGGCACGGUAGAUCCAACGUUCUCAACUAUGACACGCAAAACGCGUGCUCCGUUGAAUAGACUUUAUCAUG [A20C C36U G86A A89G C93A G94U G140A G143C]	≤ -4.2
GGAUAUUCUCGAUCUAACAAAAAAGACAAAUCUGCCACAAAGCUUGAGAGCAUCUUCGGAUGCGGGGGCGGCAGCCUUCGGUGGCGCGAUAGCGCCAACGUUCUCAACUAUGACACGCAAAACGCGUGCUCCGGUGAAUGGAGUUUAUCAUG [C5A A64G A66G U134G]	≤ -4.2
GGAUCUUCUCGAUAUAACAAAAAAGACAAAUCUGCCACAAAGCUUGAGAGCAUCUUCCGAUGCAGAGGCGGCAGCCUUCGGUGGCGCGAUAGUGCCAACGUUCUCAACUAUGACACGCAAAACGCGUGCUCCGUUGAAUGGAGUUUAUCAUG [C14A G58C C93U]	-2.75
GGAUCUUCUCGAUCUAACAAAAAAGACAAAUCUGCCACAAAGCUUGAGAGCAUCUUCGGAUGCAGAGGCGGCAGCCUUCGGUAGCGCGAUAGCGCCAACGUUCUCAACUAUGACACGCAAGACGCGUGCUCCGUUGAAUGGAGUGUAGCAUG [G83A A121G U145G U148G]	≤ -4.2
GGAUCUUCUCGAUCUAACAAAAAAGACAAAUCUGCCACAAAGCUUGAGAGCAUCUGCGGAUGCAGAGGCGGCAGCCUUCGGUGGGGCGAUAGCGCCAACGUUCUCAACUAUGACACGCGAAACGCGUGCUCCGUUGAAUGCAGUUUAUCAUG [U56G C85G A119G G141C]	-2.08
GGAUCUUCUCGAUCUAACAAAAAAGACAAAUCUGCCACAAAGCUUGAGAGCAUCUUCGAAUGCACAGACGGCAGCCCUCGGUGGCGCGAUAGCGCCAACGUUCUCAACUAUGACACGCAAAACGCGUGCUCCUUUGAAUGGAGUUUAUCAUG [G59A G65C G68A U77C G133U]	≤ -4.2
GGAUCUUCUCGAUCUAACAAAAAAGAUAAAUCUGCCACAAAGCUUGAGAGCAUCUUCGGAUGCAGAGGCGGCAGCCUUCGGUGACGCAAUAGCGCCAACGUUCUCAACUAUGACACGCAAAACGCGUGCUCCGUUGAAUGGAGUUUAUCAUG [C27U G84A G88A]	-4.04
GGAUCUUCUCGAUCUAACAAAAAAGACAAAUCUGCCACAAAGAUUGAGAGCAUUUUCGGAUGCAGAGGCGCCAGCCUUCGGUGGCGCGAUAGCGCCAACGUUUUCAACUAUGACUCUCAAAACGCGUGCUCCGUUGAAUGGAGUUUAUCAUG [C43A C54U G71C C103U A115U G117U]	≤ -4.2
GGAUCUUCGCGAUCUAACAAAAAAGACAAAUCUGCCACAAAGCUUGAGAGCAUCUUCGGAUGCAGAGGCGGCGGCCUUCGGUGGCGCGAUAGCGCCAACGUUCUCAACUAUGACACGCAAAACGCGUGCUCCGUUGAAUGGAGUUUAUCAUG [U9G A73G]	-4.11
GGAUCUUCUCGAUCUAACAAAAAAGACAAAUCUGCCACAAAGCUUGACAGCAUCUUCGGAUGCAGAGGCGGCAGCCUUCGGUGGCGCGAUAGCGCCAACGUUCUCAACUAUGACACGGAGAACGCGUGCUCCGUUGAAUGGAGUUUAUCAUG [G48C C118G A120G]	-3.82
GGAUCUUCUCGAUCUAACAAAAAAGGCAAAUCUGCCACAAAGCUUGAGAGCAACUUCGGAUGCAGAGGCGGCAGCCUUCGGUGGCGCGAUAGCGCCAACGUUCUCAACUAUGACACGCAAAACGCGUGCUCCGUUGAAUGGAGUUUAUCAUG [A26G U53A]	-4.06
GGAUCUUAUCGAUCUAACAAAAAAGACAAAUCUGCCACAAAGCUUGAGAGCAUCUUCGGAUGCAGAGGCGGCAGCCUUCGGUGGCGCGAUAGCGCCAACGUUCUCAACUAUGACACGCAAAACGCGUGCUCCGUUAAAUGGAGUUUAUCAUG [C8A G136A]	-3.96
GGAUCUUCUCGAUCUAACAAAAAAGACAAAUCUGCCACACAGCUUGAGAGCAUCUUCGGAUGCAGAGGUGGCAGCCUUCGGUGGCGCGAUUGCGCAAACGUUCUCAACUAUGACACGCGAAACGCGUGCUCCGAUGAAUGGUGUUUAUCAUG [A40C C69U A91U C96A A119G U134A A142U]	≤ -4.2
GGAUCUUCUCGAUCUAACAAAAAAGACAAAUCUGCCACAAAGCUUGAGAGCAUCUUCAGAUGCAGAGGCGGCAGCCUUCGGUGGCGCGAUAACGCCAACGUUCUCAACUAUGACACGCAAAACGCGCGCUCCGUGGAAUGGAUUUUAUCAGG [G58A G92A U127C U135G G143U U151G]	≤ -4.2
GGAUCUUCUCGAUCUAACAAAAAAGACAAAUCUGCCACAAAGUUUGAGAGCAUCUUCGGAUGCAGAGGCGGCAGCCUUCAGUGGCGCGAUAGCGCCAACGUUCUCAACUAUGACGCGCAAAACGCGUGCUCCGUUGAAUGGAGUUUAUCAUG [C43U G80A A115G]	≤ -4.2
GGAUCUUCUCGAUCUAACAAAAAAGAUAAAUCUGCCGCAAAGCUUGAGAGCAUCUUCGGAUGCAGAGGCGGCAGCCUUCGGUGGCGCGAUAGCGCCAACGUUCGCAACUAUGACACGCAAAACGCGUGCUCCGUUGAAUGGAGUUUAUCAUG [C27U A37G U104G]	-4.08
GGUUCUUCUCGAUCUAACAAAAAAGACAAAUCUGCCACAAAGCUUGAGAGCAUCUACGGAUGCAGAGGCGGCAGCCUUCGGUGGCGCCAUAGCGCCAACGUUCUCAACUAUGACACGCAAAACGCGUGCUCCGUUGAAUGGAGUGUAUCAUG [A3U U56A G88C U145G]	-3.98

— the RNAGym collection of RNA variant scans (doi:10.1073/pnas.2313332121)
